Among the data in patent US20250276077A1 (IMMUNOME, published 2025) are IHC score and Kd values, retold here.

The target in experiment [1] is T1, Human EphA2 (human, UniProt P29317 24-976).
T1 construct: Endogenous EphA2 in fresh frozen human tumor tissue sections, not a recombinant protein; also called ephrin receptor A2; hEphA2
Kind of experiment: IHC/IF on frozen human tumor tissue: ANC.

Experiment [2] concerns the target T1, Human EphA2. Description: IHC/IF on frozen human tumor tissue: GAC.
Experiment [3] concerns the target T1, Human EphA2. Kind of experiment: IHC/IF on frozen human tumor tissue: RCC-papillary.
The target of experiment [4] is T1, Human EphA2. Kind of experiment: IHC/IF on frozen human tumor tissue: PROC.
Experiment [5] deals with T1, Human EphA2. Kind of experiment: IHC/IF on frozen human tumor tissue: PANC.
Experiment [6] addresses T1, Human EphA2. Kind of experiment: IHC/IF on frozen human tumor tissue: MELA.
The target of experiment [7] is T1, Human EphA2. Description: IHC/IF on frozen human tumor tissue: OVA.
Experiment [8] concerns the target T1, Human EphA2. Description: IHC/IF on frozen human tumor tissue: UCEC-clear cell.
Experiment [9] concerns the target T1, Human EphA2. Description: IHC/IF on frozen human tumor tissue: RCC-clear cell.
The target of experiment [10] is T1, Human EphA2. Description: IHC/IF on frozen human tumor tissue: Her2+ BRC.
For experiment [11], the target named is T1, Human EphA2. Kind of experiment: IHC/IF on frozen human tumor tissue: ESO.
Experiment [12] addresses T1, Human EphA2. Kind of experiment: IHC/IF on frozen human tumor tissue: TNBC.
Experiment [13] addresses T1, Human EphA2. Kind of experiment: IHC/IF on frozen human tumor tissue: ER+ BRC.
Experiment [14] deals with T1, Human EphA2. Kind of experiment: IHC/IF on frozen human tumor tissue: NSCLC-SQ.
The target of experiment [15] is T1, Human EphA2. Description: IHC/IF on frozen human tumor tissue: UCEC-papillary.
The target of experiment [16] is T1, Human EphA2. Description: IHC/IF on frozen human tumor tissue: UCEC-endometrioid.
The target of experiment [17] is T1, Human EphA2. Description: IHC/IF on frozen human tumor tissue: STS.
Experiment [18] addresses T1, Human EphA2. Kind of experiment: IHC/IF on frozen human tumor tissue: URO.
In experiment [19] the target is T1, Human EphA2. Description: IHC/IF on frozen human tumor tissue: NSCLC-Adeno.
In experiment [20] the target is T1, Human EphA2. Description: IHC/IF on frozen human tumor tissue: HNC.
The target of experiment [21] is T1, Human EphA2. Kind of experiment: IHC/IF on frozen human tumor tissue: CRC.
For experiment [22], the target named is T2, C-terminally His-tagged hEphA2-FN2 (Thr437-Asn534+His tag) (human, UniProt P29317 437-534).
T2 construct: also called FN2 domain of hEphA2
Description: SPR Biacore T200, 25 C; mIgG2a captured by anti-mouse Fc, hEphA2-FN2-His analyte; steady-state monovalent KD. Here is the method:
Binding of antibodies to the FN2 domain of hEphA2 was measured using the Biacore® T200 SPR system at 25° C. using HBS-EP+ buffer (0.01 M HEPES pH 7.4, 0.15 M NaCl, 3 mM EDTA, 0.005% v/v Surfactant P20). Antibodies in mIgG2a format were captured at levels between 475-715 RU via an anti-mouse Fc antibody immobilized to a CM5 chip. Binding was assessed using a titration of C-terminally His-tagged hEphA2-FN2 (Thr437-Asn534+His tag) associated for 30 s or 75 s at 30 μL/min. Data was double-reference subtracted using both a surface without captured antibody and from injections of HBS-EP+ buffer. The equilibrium response was measured at 4 seconds before the end of association with a window of 5 seconds and fit using the Biacore T200 Evaluation Software 3.1 with the Steady State Affinity Model.
Background: SPR reads the build-up and loss of mass on a sensor chip optically.

B1: AB-009812 (antibody, mouse IgG2a, V domains shown)
VH: QVQLQQWGAGLLKPSETLSLTCAVYGGSFSDYYWSWIRQPPGKGLEWIGEVNHSGSINYNNYNPSLKSRVTISVDPSKNQFSLKLTSVTAADTAVYYCAKPLRPHCTNGVCYSGDAFDIWGQGTMVTVAS
VL: SYVLTQPPSVSVAPGQTARITCGGNNIGSKNVHWYQQKPGQAPVLVVYDDSDRPSGIPEQFSGSNSGNTATLTISRVEAGDEADYYCQVWDSSSDHLVFGGGTKLTVL
notes: Made on a mouse IgG2a framework
On to B1, for which the IHC score was 2 with Human EphA2 [1]; 2 in the experiment with Human EphA2 [2]; 1 in the experiment with Human EphA2 [3]; 1 in the experiment with Human EphA2 [4]; 1 in the experiment with Human EphA2 [5]; 2 with Human EphA2 [6]. In addition, the IHC score in the experiment with Human EphA2 [7] is 2; with Human EphA2 [8] it was 1; with Human EphA2 [9] it was 1; with Human EphA2 [10] it was 2; with Human EphA2 [11], 2; with Human EphA2 [12], 1. The IHC score was 1 with Human EphA2 [13]; 1 with Human EphA2 [14]; 2 in the experiment with Human EphA2 [15]; 1 in the experiment with Human EphA2 [16]; 2 with Human EphA2 [17]; 1 with Human EphA2 [18]. Moreover, the IHC score with Human EphA2 [19] is 2; with Human EphA2 [20], 2; with Human EphA2 [21] it was 1.

B2: AB-010363 (mouse IgG2a format) (antibody, V domains shown)
VH: QVQLQQWGAGLLKPSETLSLTCAVYGGSFSGYYWSWIRQPPGKGLEWIGEINHRGSINYNNYNPSLKSRVTISVDTSKNQFSLKLSSVTAADTAVYYCAKPLRPHCTNGVCYSGDAFDIWGQGTMVTVAS
VL: SYVLTQPPSVSVAPGQTARITCGGNNIGSKNVHWYQQKPGQAPVLVVYDDSDRPSGIPERFSGSNSGNTATLTISRVEAGDEADYYCQVWDSSSDHVVFGGGTKLTVL
notes: tested in mIgG2a format
Molecule B2 registered a Kd in [22] of 1310 nM.

B3: AB-010361 (mouse IgG2a format) (antibody, V domains shown)
VH: QVQLQQWGAGLLKPSETLSLTCAVYGGSFSGYYWSWIRQPPGKGLEWIGEINHRGSINYNNYNPSLKSRVTISVDTSKNQFSLKLSSVTAADTAVYYCAKPLRPHCTNGVCYSGDAFDIWGQGTMVTVAS
VL: SYVLTQPPSVSVAPGQTARITCGGNNIGSKNVHWYQQKPGQAPVLVVYDDSDRPSGIPEQFSGSNSGNTATLTISRVEAGDEADYYCQVWDSSSDHVVFGGGTKLTVL
notes: tested in mIgG2a format
Molecule B3 showed a Kd in experiment [22] of 1110 nM.

B4: AB-008873 (mouse IgG2a format) (antibody, V domains shown)
VH: QVQLQQWGAGLLKPSETLSLTCAVYGGSFSDYYWSWIRQPPGKGLEWIGEVNHRGSINYNNYNPSLKSRVTISVDPSKNQFSLKLTSVTAADTAVYYCAKPLRPHCTNGVCYSGDAFDIWGQGTMVTVAS
VL: SYVLTQPPSVSVAPGQTARITCGGNNIGSKNVHWYQQKPGQAPVLVVYDDSDRPSGIPEQFSGSNSGNTATLTISRVEAGDEADYYCQVWDSSSDHLVFGGGTKLTVLG
Take B4: the Kd in experiment [22] was determined as 2260 nM.

B5: AB-009813 (antibody, mouse IgG2a, V domains shown)
VH: QVQLQQWGAGLLKPSETLSLTCAVYGGSFSDYYWSWIRQPPGKGLEWIGEVNHAGSINYNNYNPSLKSRVTISVDPSKNQFSLKLTSVTAADTAVYYCAKPLRPHCTNGVCYSGDAFDIWGQGTMVTVAS
VL: SYVLTQPPSVSVAPGQTARITCGGNNIGSKNVHWYQQKPGQAPVLVVYDDSDRPSGIPEQFSGSNSGNTATLTISRVEAGDEADYYCQVWDSSSDHLVFGGGTKLTVL
notes: as for B1
With B5, the IHC score with Human EphA2 [1] was 2; in the experiment with Human EphA2 [2] it was 2; with Human EphA2 [3], 1; with Human EphA2 [4] it was 1; with Human EphA2 [5], 1; with Human EphA2 [6], 2. For the same molecule, the IHC score in the experiment with Human EphA2 [7] amounted to 2; with Human EphA2 [8], 2; with Human EphA2 [9], 1; with Human EphA2 [10] it was 1; in the experiment with Human EphA2 [11], 2; with Human EphA2 [12], 1. The IHC score in the experiment with Human EphA2 [13] was 1; with Human EphA2 [14], 1; with Human EphA2 [15], 2; with Human EphA2 [16] it was 1; in the experiment with Human EphA2 [17] it was 2; in the experiment with Human EphA2 [18], 1. Besides, the IHC score in the experiment with Human EphA2 [19] worked out at 2; with Human EphA2 [20] it was 2; with Human EphA2 [21], 1.

B6: AB-009816 (antibody, mouse IgG2a, V domains shown)
VH: QVQLQQWGAGLLKPSETLSLTCAVYGGSFSDYYWSWIRQPPGKGLEWIGEVNHRGSINYNNYNPSLKSRVTISVDASKNQFSLKLTSVTAADTAVYYCAKPLRPHCTNGVCYSGDAFDIWGQGTMVTVAS
VL: SYVLTQPPSVSVAPGQTARITCGGNNIGSKNVHWYQQKPGQAPVLVVYDDSDRPSGIPEQFSGSNSGNTATLTISRVEAGDEADYYCQVWDSSSDHLVFGGGTKLTVL
notes: as for B1
In the case of B6, the IHC score stood at 2 with Human EphA2 [1]; 2 with Human EphA2 [2]; 1 with Human EphA2 [3]; 1 with Human EphA2 [4]; 1 in the experiment with Human EphA2 [5]; 2 in the experiment with Human EphA2 [6]. Besides, the IHC score with Human EphA2 [7] worked out at 2; with Human EphA2 [8], 2; with Human EphA2 [9], 1; with Human EphA2 [10] it was 2; with Human EphA2 [11], 2; in the experiment with Human EphA2 [12], 1. In addition, the IHC score is 1 in the experiment with Human EphA2 [13]; 1 with Human EphA2 [14]; 2 with Human EphA2 [15]; 1 with Human EphA2 [16]; 2 with Human EphA2 [17]; 1 in the experiment with Human EphA2 [18]. In addition, the IHC score with Human EphA2 [19] came out at 2; with Human EphA2 [20], 2; with Human EphA2 [21], 1.

B7: AB-009815 (antibody, mouse IgG2a, V domains shown)
VH: QVQLQQWGAGLLKPSETLSLTCAVYGGSFSDYYWSWIRQPPGKGLEWIGEVNHRGSINYNNYNPSLKSRVTISVDTSKNQFSLKLTSVTAADTAVYYCAKPLRPHCTNGVCYSGDAFDIWGQGTMVTVAS
VL: SYVLTQPPSVSVAPGQTARITCGGNNIGSKNVHWYQQKPGQAPVLVVYDDSDRPSGIPEQFSGSNSGNTATLTISRVEAGDEADYYCQVWDSSSDHLVFGGGTKLTVL
notes: as for B1
With B7, the IHC score was 2 with Human EphA2 [1]; 2 in the experiment with Human EphA2 [2]; 1 with Human EphA2 [3]; 1 with Human EphA2 [4]; 1 in the experiment with Human EphA2 [5]; 2 in the experiment with Human EphA2 [6]. Moreover, the IHC score with Human EphA2 [7] amounted to 2; in the experiment with Human EphA2 [8] it was 2; with Human EphA2 [9], 1; with Human EphA2 [10] it was 2; with Human EphA2 [11], 2; in the experiment with Human EphA2 [12], 1. Further, the IHC score was 1 with Human EphA2 [13]; 1 in the experiment with Human EphA2 [14]; 2 with Human EphA2 [15]; 1 with Human EphA2 [16]; 2 in the experiment with Human EphA2 [17]; 1 in the experiment with Human EphA2 [18]. Besides, the IHC score with Human EphA2 [19] was found to be 2; in the experiment with Human EphA2 [20], 2; with Human EphA2 [21], 1.

A word on the Kd: it is the concentration at which binding is half-saturated.
